# PMC3204175
# Target: CALM_(2091)AF10 (human) (UniProt Q13492)
# Assay: FRET or BRET
substance,measurement,value
CALM_(2091)AF10 (from UniProt Q13492 1-648),average FRET efficiency,13%
same,mean donor photobleaching decay constant (CFP with YFP; CFP alone 0.72),0.5
